What is called Kd is the constant that tells how readily two partners part at equilibrium. As usually defined, the koff is the first-order rate constant of dissociation. A lower koff goes with a long-lived complex. As usually defined, the kon is the rate constant with which the complex forms. Lower therefore signals slow association.

To fix the notation:
B1: ICR62 WT Fab (Fab, V domains shown)
VH: QVNLLQSGAALVKPGASVKLSCKGSGFTFTDYKIHWVKQSHGKSLEWIGYFNPNSGYSTYNEKFKSKATLTADKSTDTAYMELTSLTSEDSATYYCTRLSPGGYYVMDAWGQGASVTVSS
VL: DIQMTQSPSFLSASVGDRVTINCKASQNINNYLNWYQQKLGEAPKRLIYNTNNLQTGIPSRFSGSGSGTDYTLTISSLQPEDFATYFCLQHNSFPTFGAGTKLELK
B2: ICR62 L2/H9 Fab (Fab, V domains shown)
VH: QVQLQQSGPGLVKPGASVKVSCKGSGFTFTDYKIHWVRQAPGKSLEWMGYFNPNSGYSTYNEKFQGRVTITADKSTDTAYMELSSLRSEDTAVYYCTRLSPGGYYVMDAWGQGTLVTVSS
VL: DIQMTQSPSSLSASVGDRVTITCRASQNINNYLNWYQQKPGKAPKRLIYNTNNLQTGIPSRFSGSGSGTDYTLTISSLQPEDFATYFCLQHNSFPTFGAGTKLEIK
B3: C225 L2/H3 Fab (Fab, V domains shown)
VH: QVQLQQSGPGLVKPSQTLSLTCTVSGFSLTNYGVHWVRQAPGKGLEWLGVIWSGGNTDYNTSLKSRLTISKDNSKSQVVLQMNSLRAEDTAVYYCARALTYYDYEFAYWGQGTLVTVSS
VL: DILLTQSPATLSLSPGERVTLSCRASQSIGTNIHWYQQKPDQSPKLLIKYASESISGIPSRFSGSGSGTDFTLTISSLQPEDFADYYCQQNNNWPTTFGAGTKLEIK
B4: C225 L2/H4 Fab (Fab, V domains shown)
VH: QVQLQQSGPGLVKPSQTLSLTCTVSGFSLTNYGVHWVRQAPGKGLEWLGVIWSGGNTDYNTSLKSRLTISKDNSKSQVVLTMTNMDPVDTATYYCARALTYYDYEFAYWGQGTLVTVSS
VL: DILLTQSPATLSLSPGERVTLSCRASQSIGTNIHWYQQKPDQSPKLLIKYASESISGIPSRFSGSGSGTDFTLTISSLQPEDFADYYCQQNNNWPTTFGAGTKLEIK
B5: C225 L3/H5 full length antibody (antibody, IgG1, V domains shown)
VH: QVQLQQSGPGLVKPSQTLSLTCTVSGFSLTNYGVHWVRQAPGKGLEWLGVIWSGGNTDYNTPLTSRLTINKDNSKSQVVLQMNSLRAEDTAVYYCARALTYYDYEFAYWGQGTLVTVSS
VL: DILLTQSPSSLSASVGDRVTITCRASQSIGTNIHWYQQKPDQSPKLLIKYASESISGIPSRFSGSGSGTDFTLTISSLQAEDVAVYYCQQNNNWPTTFGAGTKLEIK
B6: C225 L3/H6 full length antibody (antibody, IgG1, V domains shown)
VH: QVQLQQSGPGLVKPSQTLSLTCTVSGFSLTNYGVHWVRQAPGKGLEWVGVIWSGGNTDYNTSVKGRFTISKDNSKSQVYLQMNSLRAEDTAVYYCARALTYYDYEFAYWGQGTLVTVSS
VL: DILLTQSPSSLSASVGDRVTITCRASQSIGTNIHWYQQKPDQSPKLLIKYASESISGIPSRFSGSGSGTDFTLTISSLQAEDVAVYYCQQNNNWPTTFGAGTKLEIK
B7: C225 L3/H7 full length antibody (antibody, IgG1, V domains shown)
VH: QVQLQQSGPGLVKPSQTLSLTCTVSGFSLTNYGVHWVRQPPGKGLEWIGVIWSGGNTDYNTSLKSRVTISKDNSKSQVSLKLSSVTAADTAVYYCARALTYYDYEFAYWGQGTLVTVSS
VL: DILLTQSPSSLSASVGDRVTITCRASQSIGTNIHWYQQKPDQSPKLLIKYASESISGIPSRFSGSGSGTDFTLTISSLQAEDVAVYYCQQNNNWPTTFGAGTKLEIK
B8: C225 L4/H7 full length antibody (antibody, IgG1, V domains shown)
VH: QVQLQQSGPGLVKPSQTLSLTCTVSGFSLTNYGVHWVRQPPGKGLEWIGVIWSGGNTDYNTSLKSRVTISKDNSKSQVSLKLSSVTAADTAVYYCARALTYYDYEFAYWGQGTLVTVSS
VL: DILLTQSPAFLSVTPGEKVTITCRASQSIGTNIHWYQQKPDQSPKLLIKYASESISGIPSRFSGSGSGTDFTLTINSLEAEDAATYYCQQNNNWPTTFGAGTKLEIK
B9: C225 L4/H4 full length antibody (antibody, IgG1, V domains shown)
VH: QVQLQQSGPGLVKPSQTLSLTCTVSGFSLTNYGVHWVRQAPGKGLEWLGVIWSGGNTDYNTSLKSRLTISKDNSKSQVVLTMTNMDPVDTATYYCARALTYYDYEFAYWGQGTLVTVSS
VL: DILLTQSPAFLSVTPGEKVTITCRASQSIGTNIHWYQQKPDQSPKLLIKYASESISGIPSRFSGSGSGTDFTLTINSLEAEDAATYYCQQNNNWPTTFGAGTKLEIK
B10: C225 L4/H6 full length antibody (antibody, IgG1, V domains shown)
VH: QVQLQQSGPGLVKPSQTLSLTCTVSGFSLTNYGVHWVRQAPGKGLEWVGVIWSGGNTDYNTSVKGRFTISKDNSKSQVYLQMNSLRAEDTAVYYCARALTYYDYEFAYWGQGTLVTVSS
VL: DILLTQSPAFLSVTPGEKVTITCRASQSIGTNIHWYQQKPDQSPKLLIKYASESISGIPSRFSGSGSGTDFTLTINSLEAEDAATYYCQQNNNWPTTFGAGTKLEIK
B11: C225 L4/H5 full length antibody (antibody, IgG1, V domains shown)
VH: QVQLQQSGPGLVKPSQTLSLTCTVSGFSLTNYGVHWVRQAPGKGLEWLGVIWSGGNTDYNTPLTSRLTINKDNSKSQVVLQMNSLRAEDTAVYYCARALTYYDYEFAYWGQGTLVTVSS
VL: DILLTQSPAFLSVTPGEKVTITCRASQSIGTNIHWYQQKPDQSPKLLIKYASESISGIPSRFSGSGSGTDFTLTINSLEAEDAATYYCQQNNNWPTTFGAGTKLEIK
B12: C225 L3/H8 full length antibody (antibody, IgG1, V domains shown)
VH: QVQLVESGGGLVQPGRSLRLSCAVSGFSLTNYGVHWVRQAPGKGLEWVSVIWSGGNTDYNTSVKGRFTISKDNSKSTVYLQMNSLRAEDTAVYYCARALTYYDYEFAYWGQGTLVTVSS
VL: DILLTQSPSSLSASVGDRVTITCRASQSIGTNIHWYQQKPDQSPKLLIKYASESISGIPSRFSGSGSGTDFTLTISSLQAEDVAVYYCQQNNNWPTTFGAGTKLEIK
B13: C225 L3/H4 full length antibody (antibody, IgG1, V domains shown)
VH: QVQLQQSGPGLVKPSQTLSLTCTVSGFSLTNYGVHWVRQAPGKGLEWLGVIWSGGNTDYNTSLKSRLTISKDNSKSQVVLTMTNMDPVDTATYYCARALTYYDYEFAYWGQGTLVTVSS
VL: DILLTQSPSSLSASVGDRVTITCRASQSIGTNIHWYQQKPDQSPKLLIKYASESISGIPSRFSGSGSGTDFTLTISSLQAEDVAVYYCQQNNNWPTTFGAGTKLEIK
B14: C225 L4/H8 full length antibody (antibody, IgG1, V domains shown)
VH: QVQLVESGGGLVQPGRSLRLSCAVSGFSLTNYGVHWVRQAPGKGLEWVSVIWSGGNTDYNTSVKGRFTISKDNSKSTVYLQMNSLRAEDTAVYYCARALTYYDYEFAYWGQGTLVTVSS
VL: DILLTQSPAFLSVTPGEKVTITCRASQSIGTNIHWYQQKPDQSPKLLIKYASESISGIPSRFSGSGSGTDFTLTINSLEAEDAATYYCQQNNNWPTTFGAGTKLEIK

The target of the first assay is T1, EGFR extracellular domain (R&D Systems) (UniProt P00533 25-645, limits assumed). Briefly: SPR, Fab over EGFR on CM5 chip. On the technique in general: SPR reads the build-up and loss of mass on a sensor chip optically.
In turn, B1 returned a dissociation constant Kd of 0.257 nM, a koff of 2.53e-05 s⁻¹ and a kon of 98600 M⁻¹ s⁻¹.
The molecule B2 came in with an equilibrium dissociation constant (Kd) of 0.45 nM, an off-rate (koff) of 0.000106 s⁻¹ and a kon of 235000 M⁻¹ s⁻¹.

The target in another assay is T1, EGFR extracellular domain (R&D Systems). Description: SPR, Fab over EGFR ECD on CM5 chip.
B3 came in with a Kd of 192 nM, a koff of 0.00535 s⁻¹ and a kon of 27900 M⁻¹ s⁻¹.
Molecule B4 showed a dissociation constant Kd of 264 nM, a koff of 0.00473 s⁻¹ and a kon of 17900 M⁻¹ s⁻¹.

A further assay shares this target. Description: SPR, full length antibody over EGFR chip.
Regarding B5, the binding result is recorded as “binds”.
For B6, the binding result is reported as “binds”.
For B7, the binding result is “binds”.
With B8, the binding result is listed as “binds”.
Take B9: the binding result is “binds”.
On to B10, for which the binding result is given as “binds”.
As to B11, the binding result is recorded as “binds”.
As to B12, the binding result was “binds”.
On to B13, for which the binding result was “binds”.
Turning to B14, the binding result is “binds”.

Source of the values: patent US7657380.
